From patent US20240132578A1

Assays:
Experiment in all cases: cell-based or functional assay
[1] = biological target: HIV-1 Env of isolate MGRM-F1-022 (pseudovirus) (HIV-1)
[2] = biological target: HIV-1 envelope glycoprotein (Env) of isolate 92UG031, subtype A (HIV-1)
[3] = biological target: HIV-1 envelope glycoprotein (Env) of isolate 93IN905, on pseudovirus (HIV-1)
[4] = biological target: HIV-1 envelope glycoprotein (Env) of isolate APV_13, on pseudovirus (HIV-1)
[5] = biological target: HIV-1 envelope glycoprotein (Env) of isolate MG RM-A-012, subtype A (HIV-1)
[6] = biological target: HIV-1 Env of isolate MGRM-A-005 (pseudovirus) (HIV-1)
[7] = biological target: HIV-1 Env of isolate MGRM-A-009 (subtype A) (HIV-1)
[8] = biological target: HIV-1 Env of isolate MGRM-AG-002 (subtype AG) (HIV-1)
[9] = biological target: HIV-1 Env of isolate MGRM-AG-006 (subtype AG) (HIV-1)
[10] = biological target: HIV-1 Env of isolate MGRM-D-003 (pseudovirus) (HIV-1)
[11] = biological target: HIV-1 Env of isolate MGRM-D-008 (pseudovirus) (HIV-1)
[12] = biological target: HIV-1 Env of isolate MGRM-D-011 (pseudovirus) (HIV-1)
[13] = biological target: HIV-1 Env of isolate MGRM-F1-014 (HIV-1)
[14] = biological target: HIV-1 Env of isolate MGRM-F1-021 (HIV-1)
[15] = biological target: HIV-1 Env of isolate MGRM-F1-022 (HIV-1)
[16] = biological target: HIV-1 Env of pseudovirus isolate MGRM-C-022 (clade C) (HIV-1)
[17] = biological target: HIV-1 Env of pseudovirus isolate MGRM-C-024 (clade C) (HIV-1)
[18] = biological target: HIV-1 Env of pseudovirus isolate MGRM-C-025 (clade C) (HIV-1)
[19] = biological target: HIV-1 Env of pseudovirus isolate MGRM-C-027 (clade C) (HIV-1)
[20] = biological target: HIV-1 JR-CSF Env E466A (HIV-1 (isolate JR-CSF)) (UniProt P20871)
[21] = biological target: HIV-1 JR-CSF Env N392Q (HIV-1 (isolate JR-CSF)) (UniProt P20871)
[22] = biological target: HIV-1 93IN905 Env (HIV-1)
[23] = biological target: HIV-1 Env of isolate MGRM-AG-009 (pseudovirus) (HIV-1)
HIV-1 JRCSF Env (HIV-1) = HIV-1 JRCSF Env (HIV-1) (UniProt P20871)
[24] = biological target: HIV-1 MGRM-AG-005 envelope protein (Env) on pseudovirus (HIV-1)
[25] = biological target: HIV-1 MGRM-C-026 Env (HIV-1)
[26] = biological target: HIV-1 MGRM-C-027 Env (HIV-1)
[27] = biological target: HIV-1 MGRM-D-018 Env (HIV-1)
[28] = biological target: HIV-1 envelope glycoprotein (Env) of isolate 93IN905 (HIV-1)

Substance | IC50 (µg/mL), pseudovirus neutralization [1] | IC50, pseudovirus neutralization [2] | IC50, pseudovirus neutralization [3] | IC50, pseudovirus neutralization [4] | IC50, pseudovirus neutralization [5] | IC50 (µg/mL), pseudovirus neutralization [6] | IC50, pseudovirus neutralization [7] | IC50, pseudovirus neutralization [8] | IC50, pseudovirus neutralization [9] | IC50 (µg/mL), pseudovirus neutralization [10] | IC50 (µg/mL), pseudovirus neutralization [11] | IC50 (µg/mL), pseudovirus neutralization [12] | IC50 (µg/mL), pseudovirus neutralization [13] | IC50 (µg/mL), pseudovirus neutralization [14] | IC50 (µg/mL), pseudovirus neutralization [15] | IC50, pseudovirus neutralization [16] | IC50, pseudovirus neutralization [17] | IC50, pseudovirus neutralization [18] | IC50, pseudovirus neutralization [19] | Fold IC50 increase relative to wild-type (pseudovirus neutralization) [20] | other results
4838_L06 (PGT-121) (antibody) | 0.104 µg/mL | > 50 µg/mL | 0.005 µg/mL | 0.251 µg/mL | 0.092 µg/mL | – | – | – | – | – | – | – | – | – | – | – | – | – | – | – | –
5136_H01 (PGT-131) (antibody) | – | – | – | – | – | > 50 µg/mL | 0.035 µg/mL | > 50 µg/mL | 0.019 µg/mL | 19.6 µg/mL | > 50 µg/mL | 0.756 µg/mL | > 50 µg/mL | > 50 µg/mL | > 50 µg/mL | 0.78 µg/mL | > 50 µg/mL | > 50 µg/mL | 0.065 µg/mL | 1.7 fold | Fold IC50 increase relative to wild-type (pseudovirus neutralization) [21]: 0.4 fold
5141_B17 (PGT-126) (antibody) | > 50 µg/mL | > 50 µg/mL | 0.015 µg/mL | 0.012 µg/mL | 0.097 µg/mL | – | – | – | – | – | – | – | – | – | – | – | – | – | – | 1.4 fold | IC50, pseudovirus neutralization [22]: 0.0194 µg/mL; IC50 (µg/mL), pseudovirus neutralization [23]: 0.03 µg/mL; Fold IC50 increase relative to wild-type (pseudovirus neutralization) [21]: 1.6 fold; IC50, pseudovirus neutralization (HIV-1 JRCSF Env (HIV-1)): 0.0061 µg/mL; IC50 (ug/mL), pseudovirus neutralization [24]: 1.35 µg/mL; IC50, pseudovirus neutralization [25]: 0.0076 µg/mL; IC50, pseudovirus neutralization [26]: 1.14 µg/mL; IC50, pseudovirus neutralization [27]: 0.0093 µg/mL; Neutralization IC80 [28]: 0.0676 µg/mL; Neutralization IC90 [28]: 0.14 µg/mL; Neutralization IC95 [28]: 0.275 µg/mL; neutralization IC50 [28]: 0.0194 µg/mL
4877_D15 (PGT-122) (antibody) | 0.277 µg/mL | > 50 µg/mL | 0.013 µg/mL | 0.778 µg/mL | 0.257 µg/mL | – | – | – | – | – | – | – | – | – | – | – | – | – | – | – | IC50, pseudovirus neutralization [22]: 0.0138 µg/mL; IC50 (µg/mL), pseudovirus neutralization [23]: 0.128 µg/mL; IC50, pseudovirus neutralization (HIV-1 JRCSF Env (HIV-1)): 0.0727 µg/mL; IC50 (ug/mL), pseudovirus neutralization [24]: > 10 µg/mL; IC50, pseudovirus neutralization [25]: 0.0089 µg/mL; IC50, pseudovirus neutralization [26]: 0.0388 µg/mL; IC50, pseudovirus neutralization [27]: 0.0115 µg/mL
5345_I01 (PGT-137) (antibody) | – | – | – | – | – | > 50 µg/mL | > 50 µg/mL | > 50 µg/mL | 28.3 µg/mL | > 50 µg/mL | > 50 µg/mL | 6.3 µg/mL | > 50 µg/mL | > 50 µg/mL | 6.23 µg/mL | > 50 µg/mL | > 50 µg/mL | > 50 µg/mL | > 50 µg/mL | – | –
5114_A19 (PGT-128) (antibody) | – | – | – | – | – | > 50 µg/mL | 0.005 µg/mL | 4.99 µg/mL | 0.009 µg/mL | 0.019 µg/mL | 0.033 µg/mL | 0.007 µg/mL | 0.277 µg/mL | > 50 µg/mL | 4.54 µg/mL | 0.042 µg/mL | > 50 µg/mL | 10.5 µg/mL | 0.081 µg/mL | 0.6 fold | Fold IC50 increase relative to wild-type (pseudovirus neutralization) [21]: 0.9 fold
